Substitutions are numbered along the chain they refer to.
Target: T1, HPV E6 peptide on HLA-A*11:01 (human)
T1 peptide: TTLEQQYNK
Assay: multimer staining

B1: TCR010 (TCR, V domains shown)
Valpha: AQSVTQLDSHVSVSEGTPVLLRCNYSSSYSPSLFWYVQHPNKGLQLLLKYTSAATLVKGINGFEAEFKKSETSFHLTKPSAHMSDAAEYFCVVSLSGGYNKLIFGAGTRLAVHP
Vbeta: DSGVTQTPKHLITATGQRVTLRCSPRSGDLSVYWYQQSLDQGLQFLIQYYNGEERAKGNILERFSAQQFPDLHSELNLSSLELGDSALYFCASSVTGSGYTFGSGTRLTVV
B1: recognises.

B2: TCR013 (TCR, V domains shown)
Valpha: GQQVMQIPQYQHVQEGEDFTTYCNSSTTLSNIQWYKQRPGGHPVFLIQLVKSGEVKKQKRLTFQFGEAKKNSSLHITATQTTDVGTYFCAGPKITGGGNKLTFGTGTQLKVEL
Vbeta: DSGVTQTPKHLITATGQRVTLRCSPRSGDLSVYWYQQSLDQGLQFLIQYYNGEERAKGNILERFSAQQFPDLHSELNLSSLELGDSALYFCASSVGGGPNYGYTFGSGTRLTVV
B2: recognises.

B3: TCR028 (TCR, V domains shown)
Valpha: B2 Valpha with K93I, I94L
Vbeta: DSGVTQTPKHLITATGQRVTLRCSPRSGDLSVYWYQQSLDQGLQFLIQYYNGEERAKGNILERFSAQQFPDLHSELNLSSLELGDSALYFCASGLSGPNTGELFFGEGSRLTVL
B3: recognises.

B4: TCR090 (TCR, V domains shown)
Valpha: B2 Valpha with T81L, K93V, I94L
Vbeta: B3 Vbeta with K9R, H10Y, G94S, L95V, S96G
B4: recognises.
